The labels stand for the following.
T1: FLAG epitope-tagged Beer (human Beer, secretion signal removed, C-terminal FLAG tag, from … (human, UniProt Q9BQB4 24-213))
T1 construct: also called FLAG-Beer; H. Beer
T1 sequence: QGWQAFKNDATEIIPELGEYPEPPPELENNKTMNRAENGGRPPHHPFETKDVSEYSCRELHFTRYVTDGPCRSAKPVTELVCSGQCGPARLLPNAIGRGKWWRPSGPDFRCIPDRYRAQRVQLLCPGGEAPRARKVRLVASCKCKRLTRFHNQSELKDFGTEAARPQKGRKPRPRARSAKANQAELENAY

T2: sclerostin (coated on the ELISA surface, Example 12) (Homo sapiens (Human), UniProt Q9BQB4 24-213)
T2 construct: also called SOST; Beer
T2 sequence: T1 sequence

B1: BMP-4 (ligand, UniProt P12644 293-408, looked up)
chain: SPKHHSQRARKKNKNCRRHSLYVDFSDVGWNDWIVAPPGYQAFYCHGDCPFPLADHLNSTNHAIVQTLVNSVNSSIPKACCVPTELSAISMLYLDEYDKVVLKNYQEMVVEGCGCR
B2: BMP-6 (ligand, UniProt P22004 382-513, looked up)
chain: QQSRNRSTQSQDVARVSSASDYNSSELKTACRKHELYVSFQDLGWQDWIIAPKGYAANYCDGECSFPLNAHMNATNHAIVQTLVHLMNPEYVPKPCCAPTKLNAISVLYFDDNSNVILKKYRNMVVRACGCH
B3: recombinant human BMP-5 protein (R&D systems) (ligand, UniProt P22003 317-454, looked up)
chain: AANKRKNQNRNKSSSHQDSSRMSSVGDYNTSEQKQACKKHELYVSFRDLGWQDWIIAPEGYAAFYCDGECSFPLNAHMNATNHAIVQTLVHLMFPDHVPKPCCAPTKLNAISVLYFDDSSNVILKKYRNMVVRSCGCH
notes: Commercial protein
B4: BMP receptor II-FC fusion protein (Fc fusion)
chain: SQNQERLCAFKDPYQQDLGIGESRISHENGTILCSKGSTCYGLWEKSKGDINLVKQGCWSHIGDPQECHYEECVVTTTPPSIQNGTYRFCCCSTDLCNVNFTENFPPPDTTPLSPPHSFNRDET
notes: also called BMPR-II; type II receptor; not shown: Fc part and any linker

Assay [1] concerns the target B2. Put plainly: ELISA-based competition: sclerostin coated, BMP-6, DAN titrated; competitor sclerostin.
In assay [2] the target is B2. The assay can be described thus: ELISA-based competition: sclerostin coated, BMP-6 11 nM; competitor sclerostin.
Assay [3] deals with B2. Put plainly: ELISA-based competition: sclerostin coated (300 ng/well), BMP-6 11 nM, receptor-FC titrated; competitor sclerostin.
For assay [4], the target named is T1, FLAG epitope-tagged Beer (human Beer, …). Put plainly: anti-FLAG immunoprecipitation of FLAG-tagged Beer incubated with BMP-4, anti-BMP-4 western blot; Cerberus with BMP-4 as positive control on the left part. The protocol:
The interaction of Beer with proteins from different phylogenetic arms of the TGF-β superfamily were studied using immunoprecipitation methods. Purified TGFβ-1, TGFβ-2, TGFβ-3, BMP-4, BMP-5, BMP-6 and GDNF were obtained from commerical sources (R&D systems; Minneapolis, Minn.). A representative protocol is as follows. Partially purified Beer was dialyzed into HEPES buffered saline (25 mM HEPES 7.5, 150 mM NaCl). Immunoprecipitations were done in 300 ul of IP buffer (150 mM NaCl, 25 mM Tris pH 7.5, 1 mM EDTA, 1.4 mM β-mercaptoethanol, 0.5% triton×100, and 10% glycerol). […] The proteins were resolved by SDS PAGE and Beer associated BMP-5 was detected by western blot using anti-BMP-5 antiserum (Research Diagnostics, Inc) (see FIG. 5).

The target of assay [5] is T2, sclerostin (coated on the ELISA …). Put plainly: ELISA, sclerostin-coated surface (300 ng/well), BMP-6 in solution. How it is done: (§1) A 10-fold molar excess of the BMP receptor was sufficient to reduce binding of sclerostin to BMP-6 by approximately 50%. This competition was also observed with a BMP receptor II-FC fusion protein (IC₅₀=36 nM) and DAN (IC₅₀=43 nM).
The target in assay [6] is T1, FLAG epitope-tagged Beer (human Beer, …). The assay can be described thus: Beer ligand binding assay (FLAG-Beer captured on an anti-FLAG plate, BMP-5 titrated, ELISA detection), FIG. 6. How it is done: FLAG-Beer protein (20 ng) is added to 100 ul PBS/0.2% BSA and adsorbed into each well of 96 well microtiter plate previously coated with anti-FLAG monoclonal antibody (Sigma; St Louis Mo.) and blocked with 10% BSA in PBS. This is conducted at room temperature for 60 minutes. This protein solution is removed and the wells are washed to remove unbound protein. BMP-5 is added to each well in concentrations ranging from […] to 500 nM in PBS/0.2% BSA and incubated for 2 hours at room temperature. The binding solution is removed and the plate washed with three times with 200 ul volumes of PBS/0.2% BSA. BMP-5 levels are then detected using BMP-5 anti-serum via ELISA (F. M. Ausubel et al (1998) Current Protocols in Mol. Biol. Vol 2 11.2.1-11.2.22). Specific binding is calculated by subtracting non-specific binding from total binding and analyzed by the LIGAND program (Munson and Podbard, Anal. Biochem., 107, p 220-239, (1980).

Assay [7] deals with B2. The assay can be described thus: ELISA-based competition: sclerostin coated, BMP-6, receptor-FC titrated; competitor sclerostin. The protocol: as §1

In the case of DAN (competitor in Example 12), the IC50 in assay [1] came to 43 nM.
BMP receptor IA (FC fusion construct) showed a reduction of binding of sclerostin to BMP-6 at a 10-fold molar excess of receptor in assay [2] of 50%. This molecule also displayed a half-inhibitory concentration (IC50) in assay [3] of 114 nM.
As to B1, in assay [4], the binding result is “no binding”.
Regarding B2, binding in assay [5] was characterised by a dissociation constant (Kd) of 3.4 nM.
In assay [6], B3 yielded a Kd of 15 to 30 nM.
In assay [7], B4 had a 50% inhibitory concentration (IC50) of 36 nM.
